Columns and labels:
[1] = target: T1, human CD79b on the cell surface (human, UniProt P40259 29-229); test: cell-based or functional assay
T1 sequence: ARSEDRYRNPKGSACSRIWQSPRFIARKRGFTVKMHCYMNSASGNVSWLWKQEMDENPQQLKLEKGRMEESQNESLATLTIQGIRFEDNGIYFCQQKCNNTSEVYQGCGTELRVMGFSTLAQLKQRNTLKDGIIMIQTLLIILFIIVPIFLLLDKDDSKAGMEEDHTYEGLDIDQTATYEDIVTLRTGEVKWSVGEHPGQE

[2] = target: T1, human CD79b on the cell surface; test: cell-based or functional assay; remark: listed apart in the source
[3] = target: T1, human CD79b on the cell surface; test: cell-based or functional assay; remark: listed apart in the source
[4] = target: T1, human CD79b on the cell surface; test: cell-based or functional assay; remark: listed apart in the source
[5] = target: T1, human CD79b on the cell surface; test: flow cytometry, HBL-1 cells, 1 h 37 C
Protocol: (§1) All cells were washed with BD stain buffer (BD Biosciences; Cat #554657), centrifuged at 1200 RPM for 3 minutes, with supernatant discarded. Cells were then stained for 20 minutes at 4° C. with BD stain buffer containing AlexaFluor 647 labeled anti-human IgG secondary antibody (Jackson Immuno; Cat #109-606-098) at a 1:200 dilution along with Aqua Fixable Live/Dead stain (Invitrogen; Cat #L34957) at a 1:400 dilution. All cells were washed with BD stain buffer (BD Biosciences; Cat #554657), centrifuged at 1200 RPM for 3 mins, with supernatant discarded. Cells were analyzed using Intellicyt (Sartorius) flow cytometer and mean fluorescent intensity (MFI) was generated using Forcyt software (Sartorius). MFI was graphed and EC50 values generated using GraphPad PRISM v.8. Dose response curves were generated by transforming the x axis values using the formula […]. Data was then graphed using non-linear regression curve fit analysis “log(agonist) vs. response-variable slope (four parameter)”.

[6] = target: T1, human CD79b on the cell surface; test: flow cytometry, Carnaval cells, 1 h 37 C
Protocol: as §1

[7] = target: T2, cynomolgus monkey CD79b antigen (cynomolgus monkey); test: SPR Biacore 8k, cyno CD79b injected up to 3000 nM
T2 construct: also called cyno CD79b; CD9W1.001
Protocol: (§2) General Protocol for SPR Affinity Assessment: Affinity assessment of the bispecific trispecific constructs against human CD79b were measure using recombinantly expressed extracellular domain of CD79b short and long isoforms (CD9W7.001 and CD9W8.001, respectively) by Surface Plasmon Resonance (SPR) using a Biacore 8k SPR system (Biacore) at 25° C. in HBSP+ buffer. Cross-reactivity of the same antibody panel was also assessed against cyno and mouse antigens (CD9W1.001 and CD9W105.001, respectively). Briefly, a C1 sensor chip was immobilized with anti-human Fc (target immobilization levels of >400 RU) using vendor recommended amino coupling protocol. […] The association and dissociation phases were measured for 2 or 3 minutes and 30 minutes, respectively.
(§3) The raw binding sensorgrams were processed using Biacore Insight software (Biacore) by double-referencing and the processed sensorgrams were analyzed for cross-reactivity and fitted to a 1:1 Langmuir model to obtain on-rates, off-rates and affinities.

[8] = target: T3, recombinant extracellular domain of human CD79b, short isoform (human, UniProt P40259 29-159); test: SPR Biacore 8k, antibody captured by anti-Fc, 25 C
T3 chain: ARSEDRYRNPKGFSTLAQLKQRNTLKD
Protocol: as §2, §3

[9] = target: T4, recombinant extracellular domain of human CD79b, long isoform (human, UniProt P40259 29-159); test: SPR Biacore 8k, antibody captured by anti-Fc, 25 C
T4 construct: also called hu CD79b long
T4 sequence: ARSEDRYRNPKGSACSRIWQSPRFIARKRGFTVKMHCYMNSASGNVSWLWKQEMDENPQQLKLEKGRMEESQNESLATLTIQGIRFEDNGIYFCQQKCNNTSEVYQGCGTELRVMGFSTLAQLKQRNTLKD
Protocol: as §2, §3

[10] = target: T1, human CD79b on the cell surface; test: flow cytometry, HBL-1 cells, 1 h 37 C; control row of Table 10, same value as Table 8
Protocol: as §1

[11] = target: T1, human CD79b on the cell surface; test: flow cytometry, Carnaval cells, 1 h 37 C; control row of Table 10, same value as Table 8
Protocol: as §1

[12] = target: T5, human CD79b and CD20 co-expressed on the surface of B-lymphoma cell lines or primary B cells (human, UniProt P11836 1-297); test: cell-based or functional assay
T5 sequence 1: T1 sequence
T5 sequence 2: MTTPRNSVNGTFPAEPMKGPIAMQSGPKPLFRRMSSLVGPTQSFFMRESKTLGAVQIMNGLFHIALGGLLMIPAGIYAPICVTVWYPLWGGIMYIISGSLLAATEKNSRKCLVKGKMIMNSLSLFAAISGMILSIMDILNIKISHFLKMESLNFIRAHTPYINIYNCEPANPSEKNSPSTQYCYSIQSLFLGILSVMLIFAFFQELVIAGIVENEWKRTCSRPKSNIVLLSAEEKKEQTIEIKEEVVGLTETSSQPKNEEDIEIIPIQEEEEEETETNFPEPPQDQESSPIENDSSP

[13] = target: T5, human CD79b and CD20 co-expressed on …; test: cell-based or functional assay; remark: listed apart in the source
[14] = target: T5, human CD79b and CD20 co-expressed on …; test: cell-based or functional assay; remark: listed apart in the source
[15] = target: T5, human CD79b and CD20 co-expressed on …; test: cell-based or functional assay; remark: listed apart in the source
[16] = target: T5, human CD79b and CD20 co-expressed on …; test: cell-based or functional assay; remark: listed apart in the source
[17] = target: T5, human CD79b and CD20 co-expressed on …; test: flow cytometry, HBL-1 cells (CD79b+ CD20+), 1 h 37 C
Protocol: as §1

[18] = target: T5, human CD79b and CD20 co-expressed on …; test: flow cytometry, Carnaval cells (CD79b+ CD20+), 1 h 37 C
Protocol: as §1

[19] = target: T5, human CD79b and CD20 co-expressed on …; test: flow cytometry, OCI-LY10 cells (CD79b+ CD20+), 1 h 37 C
Protocol: as §1

B1: 79C3B651 CD79bxCD3 bispecific antibody (bispecific antibody, human IgG1, kappa, L234A L235A)
heavy: QVQLQESGPGLVKPSQTLSLTCTVSGVSISNYYWSWIRQPPGKGLEWIGRISPSGRTNYNPSLKSRVTMSLDASKNQFSLKLSSVTAADTAVYYCARGEYSGTYSYSFDIWGQGTMVTVSSASTKGPSVFPLAPSSKSTSGGTAALGCLVKDYFPEPVTVSWNSGALTSGVHTFPAVLQSSGLYSLSSVVTVPSSSLGTQTYICNVNHKPSNTKVDKKVEPKSCDKTHTCPPCPAPEAAGGPSVFLFPPKPKDTLMISRTPEVTCVVVSVSHEDPEVKFNWYVDGVEVHNAKTKPREEQYNSTYRVVSVLTVLHQDWLNGKEYKCKVSNKALPAPIEKTISKAKGQPREPQVYTLPPSREEMTKNQVSLSCAVKGFYPSDIAVEWESNGQPENNYKTTPPVLDSDGSFFLVSKLTVDKSRWQQGNVFSCSVMHEALHNRFTQKSLSLSPGK
light: DIQMTQSPSSLSASVGDRVTITCRSSQSLFDSDDGNTYLDWFQQKPGQSPKLLIQTLSYRASGVPSRFSGSGSGTDFTLTISSLQPEDFATYYCMQRMEFPLTFGGGTKVEIKRTVAAPSVFIFPPSDEQLKSGTASVVCLLNNFYPREAKVQWKVDNALQSGNSQESVTEQDSKDSTYSLSSTLTLSKADYEKHKVYACEVTHQGLSSPVTKSFNRGEC
chain: EIVLTQSPATLSASPGERVTLSCSASSSVSYMNWYQQKPGQAPRRWIYDSSKLASGVPARFSGSGSGRDYTLTISSLEPEDFAVYYCQQWSRNPPTFGGGTKVEIKGGSEGKSSGSGSESKSTGGSQVQLVQSGAEVKKPGSSVKVSCKASGYTFTRSTMHWVKQAPGQGLEWIGYINPSSAYTNYNQKFQGRVTLTADKSTSTAYMELSSLRSEDTAVYYCASPQVHYDYAGFPYWGQGTLVTVSSEPKSSDKTHTCPPCPAPEAAGGPSVFLFPPKPKDTLMISRTPEVTCVVVSVSHEDPEVKFNWYVDGVEVHNAKTKPREEQYNSTYRVVSVLTVLHQDWLNGKEYKCKVSNKALPAPIEKTISKAKGQPREPQVYTLPPSREEMTKNQVSLWCLVKGFYPSDIAVEWESNGQPENNYKTTPPVLDSDGSFFLYSKLTVDKSRWQQGNVFSCSVMHEALHNHYTQKSLSLSPGK
notes: IgG1 bispecific; CD79b Fab arm plus CD3 scFv-Fc arm; also called 79C3B651 bsAb; CD9B643 x CD3B2030-N106A
- IC50, T-cell killing of HBL-1 (Incucyte) [1]: 0.0325 nM
- IC50, T-cell killing of OCI-Ly10 (Incucyte) [2]: 4.7 nM
- IC50, CARNAVAL killing, 72 h (FACS) [3]: 0.25 nM
- IC50, HBL-1 killing, 72 h (FACS) [3]: 2.2 nM
- IC50, OCI-LY10 killing, 72 h (FACS) [3]: > 100 nM
- Cmax (maximum cytotoxicity), donor 1 [4]: 5%
- Cmax (maximum cytotoxicity), donor 2 [4]: 13%
- Cmax (maximum cytotoxicity), donor 3 [4]: 34%
- EC50, autologous B-cell depletion, donor 3 [4]: 17 nM
- EC50 [5]: 15 nM
- EC50 [6]: 12 nM
- Kd [7]: > 3000 nM
- Kd [8]: 0.35 nM
- Kd [9]: 0.052 nM
- EC50 [10]: 15 nM
- EC50 [11]: 12 nM

B2: C923B99 CD79bxCD20xCD3 trispecific antibody (other)
heavy: B1 heavy
light: B1 light
chain: EIVLTQSPATLSASPGERVTLSCSASSSVSYMNWYQQKPGQAPRRWIYDSSKLASGVPARFSGSGSGRDYTLTISSLEPEDFAVYYCQQWSRNPPTFGGGTKVEIKGGSEGKSSGSGSESKSTGGSQVQLVQSGAEVKKPGSSVKVSCKASGYTFTRSTMHWVKQAPGQGLEWIGYINPSSAYTNYNQKFQGRVTLTADKSTSTAYMELSSLRSEDTAVYYCASPQVHYDYAGFPYWGQGTLVTVSSEPKSSDKTHTCPPCPAPEAAGGPSVFLFPPKPKDTLMISRTPEVTCVVVSVSHEDPEVKFNWYVDGVEVHNAKTKPREEQYNSTYRVVSVLTVLHQDWLNGKEYKCKVSNKALPAPIEKTISKAKGQPREPQVYTLPPSREEMTKNQVSLWCLVKGFYPSDIAVEWESNGQPENNYKTTPPVLDSDGSFFLYSKLTVDKSRWQQGNVFSCSVMHEALHNHYTQKSLSLSPGKGGSEGKSSGSGSESKSTGGSAIQLTQSPSSLSASVGDRVTITCRASSSVSYIHWFQQKPGKAPKPLIYATSNLASGVPSRFSGSGSGTDFTLTISSLQPEDFATYYCQQWTSNPPTFGQGTKLEIKGGSEGKSSGSGSESKSTGGSQVQLVQSGAEVKKPGSSVKVSCKASGYTFTSYNMHWVRQAPGQGLEWMGAIYPGNGDTSYAQKFQGRVTITADKSTSTAYMELSSLRSEDTAVYYCARSTYYGGDWYFNVWGQGTLVTVSS
notes: Trispecific IgG1; also called CD9B643 / CD3B2030-N106A-scFv-LH-C20B22
- IC50, T-cell killing of HBL-1 (Incucyte) [12]: 0.0692 nM
- IC50, T-cell killing of OCI-Ly10 (Incucyte) [13]: 5.6 nM
- IC50, CARNAVAL killing (Incucyte) [14]: 0.285 nM
- IC50, CARNAVAL killing, 72 h (FACS) [15]: 0.17 nM
- IC50, HBL-1 killing, 72 h (FACS) [15]: 1.68 nM
- IC50, OCI-LY10 killing, 72 h (FACS) [15]: 16.9 nM
- Cmax (maximum cytotoxicity), donor 1 [16]: 35%
- Cmax (maximum cytotoxicity), donor 2 [16]: 67%
- Cmax (maximum cytotoxicity), donor 3 [16]: 66%
- EC50, autologous B-cell depletion, donor 2 [16]: 9 nM
- EC50, autologous B-cell depletion, donor 3 [16]: 23 nM
- Kd [7]: > 3000 nM
- Kd [8]: 0.27 nM
- Kd [9]: 0.04 nM
- EC50 [17]: 8 nM
- EC50 [18]: 6 nM
- EC50 [19]: 2 nM

From patent US20250043019A1 (Janssen / Centocor, published 2025)
